Results from patent US20220323495A1 (NATIONAL RESEARCH COUNCIL OF CANADA, published 2022).

B1: F265-5B7 anti-EGFRvIII monoclonal antibody (antibody, V domains shown)
VH: QIQLVQSGPELKKPGETVMISCKASGYSFTNYGMNWVKQAPEKDLKWMGWINTYTGESRYVDEFKGRFAFSLETSVSIVYLKINNLKNEDMATYFCARGPNFDVWGTGTTVTVSS
VL: not shown
notes: Mouse hybridoma IgG, tested as supernatant or Protein G purified mAb; also called 5B7-2
B2: F269-3D12 anti-EGFRvIII monoclonal antibody (antibody, V domains shown)
VH: EVQLQQSGPELVKPGSSVRISCKASGYTFTDYNMDWVKQSHGKSLEWIGTINPNNGGTSYNQKFKGKATLTVDKSSSTAYMELRSLTSEDSAVYYCARVRQLGLWFAYWGQGTLVTVSA
VL: EIVLTQSPALMAASPGEKVTITCSVSSSISSSNLHWYQQKSETSPKPWIYGTSNLASGVPVRFSGSGSGTSYSLTISSMEAEDAATYYCQQWSSYPLTFGSGTKLEIK
notes: Mouse hybridoma IgG, tested as supernatant or Protein G purified mAb; also called 3D12-2

What was measured:
[1] = target: T1, recombinant human wild-type EGFR protein, native (human, UniProt P00533 25-645); experiment: ELISA on coated native recombinant antigen; Exp 1, mAb supernatant
T1 construct: Recombinant protein used as ELISA coat; also called EGFRwt; wt EGFR
Experimental: (§1) Pre- and post-immune sera titers of animals were assessed by ELISA on recombinant EGFRvIII protein. Unless otherwise stated, all incubations were performed at room temperature. Briefly, half-area 96-well plates (Costar #3690) were coated with 25 μl per well of immunogen at 5 μg/ml in PBS and incubated overnight at 4° C. Microplates were washed three times in PBS and blocked for 30 min with PBS containing 1% bovine serum albumin (BSA, Sigma Cat#A7030). Blocking buffer was removed and 25 μl of serial dilutions of sera samples were added. After a 2-h incubation, microplates were washed 4 times with PBS-TWEEN™ 20 0.05% and 25 μl of a 1/5,000 dilution of alkaline phosphatase conjugated F(ab′)′₂ goat anti-mouse IgG (H+L, #115-056-062, Jackson Immunoresearch, Cedarlane, Burlington, ON) in blocking buffer was added. After a 1-h incubation, microplates were washed 4 times and 25 μl of p-nitrophenyl phosphate (pNPP) substrate (Sigma-Aldrich Canada Co., Oakville, ON) at 1 mg/ml in carbonate buffer at pH 9.6 was added and further incubated for 30 min. Absorbance was read at 405 nm using a SpectraMax 340 PC plate reader (Molecular Devices, Sunnyvale, Calif.).
(§2) To evaluate if monoclonal antibodies bind to a conformational epitope, an ELISA analysis on native and denatured recombinant human wild-type EGFR and EGFRvIII proteins were performed. […] Antigens at 1-2 mg/ml were denatured by incubation at 95° C. for 5 min in PBS containing DTT at 40 mM final concentration. They were then incubated on ice for 5 min and diluted at their final coating concentration for ELISA purpose.
(§3) mAbs were purified using HiTrap ProteinG HP 1 mL columns GE Healthcare cat no. 17-0404-01 and desalted using Zeba-spin desalting columns 5 mL (Pierce) pre-equilibrated in PBS and filter sterilized through […] membrane (Millipore). The final concentration of the antibody solutions was determined using a Nano-drop 2000 (ThermoScientific), using IgG as sample type. ELISA was performed as described above (serum titer determination) using 25 μl of mAb supernatant (Exp 1) or purified mAb at 1 μg/ml (Exp 2).

[2] = target: T2, recombinant human EGFRvIII protein, native (human, UniProt P00533 298-623); experiment: as above
T2 construct: Recombinant extracellular domain used as immunogen and ELISA coat; also called EGFRvIII Native
Experimental: as §1, §2, §3

[3] = target: T3, recombinant human EGFRvIII protein, denatured (human, UniProt P00533 298-623); experiment: ELISA on coated denatured recombinant antigen; Exp 1, mAb supernatant
T3 construct: Same protein as m9 after denaturation (95 °C for 5 min in PBS with 40 mM DTT); also called EGFRvIII Denatured
Experimental: as §1, §2, §3

[4] = target: T4, recombinant human wild-type EGFR protein, denatured (human, UniProt P00533 25-645); experiment: as above
T4 construct: Same protein as m11 after denaturation (95 °C for 5 min in PBS with 40 mM DTT); also called EGFRwt Denatured
Experimental: as §1, §2, §3

[5] = target: T1, recombinant human wild-type EGFR …; experiment: ELISA on coated native recombinant antigen; Exp 2, purified mAb 1 µg/ml
Experimental: as §1, §2, §3

[6] = target: T2, recombinant human EGFRvIII protein, …; experiment: as above
Experimental: as §1, §2, §3

[7] = target: T5, human EGFRvIII amino acid residues 15 to 37, yeast-displayed (human, not fully specified); experiment: yeast display; smallest EGFRvIII fragment the antibody was able to bind
T5 construct: also called EGFRvIII 15-37 fragment; aa 15-37
T5 peptide: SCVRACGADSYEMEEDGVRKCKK
Description: (§4) Assessment of the binding of anti-EGFRvIII monoclonal antibodies to the fusion proteins expressed on yeast cell surface was done by flow cytometry analysis. Yeast cells were labeled with both the anti-EGFRvIII monoclonal antibody and chicken anti-Myc antibody the latter being used to monitor the level of expression of the fusion protein. Following a wash step, binding of the primary antibodies is probed by a two-color indirect fluorescence labeling using a specific mouse and chicken secondary antibodies for each of the primary antibody respectively.

[8] = target: T6, EGFRvIII amino acid residues 15 to 37 with Glu29 to Ala mutation, yeast-displayed (human, not fully specified); experiment: flow cytometry on yeast displaying the Ala-mutated 15-37 fragment; normalized to Myc-tag; wild-type fragment = 100%
T6 construct: The entry already carries the mutation
T6 peptide: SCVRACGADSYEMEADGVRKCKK
Description: as §4
(§5) To further characterize mAb epitopes within the EGFRvIII 15-37 region, an alanine scan of this region was performed, and modified fragments were expressed at the surface of the yeast. […] The resulting DNAs were expressed at the surface of the yeast and each anti-EGFRvIII mAbs was tested on the corresponding yeast mutant strain by flow cytometry analysis. The original Ala19 and Ala22 were not mutated. Thus, this assay determined the contribution of each amino acid(s) in mAb binding in comparison to the original wild-type fragment (SEQ ID NO:5) which is attributed the value of 100%.

[9] = target: T7, EGFRvIII amino acid residues 15 to 37 with Lys34 to Ala mutation, yeast-displayed (human, not fully specified); experiment: as above
T7 construct: The entry already carries the mutation
T7 peptide: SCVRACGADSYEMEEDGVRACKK
Description: as §4, §5

[10] = target: T8, EGFRvIII amino acid residues 15 to 37 with Lys36 to Ala mutation, yeast-displayed (human, not fully specified); experiment: as above
T8 construct: The entry already carries the mutation
T8 peptide: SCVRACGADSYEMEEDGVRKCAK
Description: as §4, §5

[11] = target: T9, EGFRvIII amino acid residues 15 to 37 with Val17 to Ala mutation, yeast-displayed (human, not fully specified); experiment: as above
T9 construct: The entry already carries the mutation
T9 peptide: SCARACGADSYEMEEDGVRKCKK
Description: as §4, §5

[12] = target: T10, EGFRvIII amino acid residues 15 to 37 with Asp23 to Ala mutation, yeast-displayed (human, not fully specified); experiment: as above
T10 construct: The entry already carries the mutation
T10 peptide: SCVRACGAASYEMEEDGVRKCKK
Description: as §4, §5

| Binder | ELISA absorbance (405 nm) [1] [A405] | ELISA absorbance (405 nm) [2] [A405] | ELISA absorbance (405 nm) [3] [A405] | ELISA absorbance (405 nm) [4] [A405] | ELISA absorbance (405 nm) [5] [A405] | ELISA absorbance (405 nm) [6] [A405] | binding result [7] | % of binding compared to the wild-type sequence [8] [%] | % of binding compared to the wild-type sequence [9] [%] | % of binding compared to the wild-type sequence [10] [%] | % of binding compared to the wild-type sequence [11] [%] | % of binding compared to the wild-type sequence [12] [%] |
| --- | --- | --- | --- | --- | --- | --- | --- | --- | --- | --- | --- | --- |
| B1 | 0.008 | 1.14 | 1.67 | 0.046 | 0.002 | 0.874 | binds | 110 | 193 | 87.2 |  |  |
| B2 | 0.095 | 1.17 | 1.86 | 0.045 | 0.011 | 1.12 | binds | 47.7 | 137 | 95.1 | 116 | 62.4 |
